The values that follow come from PMC9272835.

The test addresses trastuzumab. The test can be described thus: BLI; trastuzumab (5 µg/mL) captured on anti-human IgG Fc (AHC) biosensors; serial dilutions of the masks or HER2 in solution; DPBS, 0.1% BSA, 0.02% Tween 20; global fit to a 1:1 model. Background: BLI is a label-free optical method that tracks binding on a fibre tip over time.

B1: dAb (VHH)
VHH: EVQLVESGGGLVQAGDSLTLSCAASGRTFSSVAMGWFRQAPGKERKFVANISWNGDSTYYTDSVKGRFTISRDNAKNTVYLQMSSLKPEDTAVYYCAADVRWTGDGHRADYWGQGTQVTVSS
As to B1, the Kd – broadly, the constant that tells how readily two partners part at equilibrium – was determined as 0.192 nM; the half-life of dissociation was 3.3 h; the koff (as a rule, the first-order rate constant of dissociation) came to 5.76e-05 s⁻¹.
